The results in this text go back to the supplement of paper PMC5998384.

Data set [1] deals with HeLa Kyoto. Nature of the data set: solubility in G1/S (NP-40 vs SDS abundance) (log2 ratio); higher = more soluble. Particulars: cell cycle stage: G1/S.
Data set [2] concerns HeLa Kyoto. Put plainly: melting temperature (median over replicates), in situ; higher = more thermally stable.
Data set [3] concerns HeLa Kyoto. Put plainly: solubility change mitosis vs G1/S (difference of NP-40 vs SDS log2 ratios) (log2 ratio difference); higher = more soluble in mitosis.
The test system of data set [4] is HeLa Kyoto. Nature of the data set: thermal stability score vs G1/S (z-score of summed log2 fold changes over temperatures); higher = more thermally stable than in G1/S.
Where [5] appears, read: cell cycle stage: early G1 (4.5 h after nocodazole release).
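For melting temperature (median over replicates), in situ in this document: HeLa Kyoto cells synchronized by double thymidine or nocodazole block, proteins quantified by TMT10plex mass spectrometry, three independent biological replicates.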
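For solubility change mitosis vs G1/S (difference of NP-40 vs SDS log2 ratios) in this document: synchronized HeLa Kyoto cells (double thymidine block for G1/S, nocodazole release for mitosis), protein amounts in NP-40 versus SDS lysates quantified by mass spectrometry, three biological replicates.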
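For solubility in G1/S (NP-40 vs SDS abundance) in this document: HeLa Kyoto cells arrested at G1/S by double thymidine block, proteins quantified by TMT10plex mass spectrometry in mild NP-40 versus SDS extracts, three biological replicates.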
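For thermal stability score vs G1/S (z-score of summed log2 fold changes over temperatures) in this document: synchronized HeLa Kyoto cells, proteins quantified by TMT10plex mass spectrometry, three biological replicates, mitosis taken 0.5 h after nocodazole release, G1/S directly after double thymidine block.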

Sequence of LARP4B (chain, as listed by the source): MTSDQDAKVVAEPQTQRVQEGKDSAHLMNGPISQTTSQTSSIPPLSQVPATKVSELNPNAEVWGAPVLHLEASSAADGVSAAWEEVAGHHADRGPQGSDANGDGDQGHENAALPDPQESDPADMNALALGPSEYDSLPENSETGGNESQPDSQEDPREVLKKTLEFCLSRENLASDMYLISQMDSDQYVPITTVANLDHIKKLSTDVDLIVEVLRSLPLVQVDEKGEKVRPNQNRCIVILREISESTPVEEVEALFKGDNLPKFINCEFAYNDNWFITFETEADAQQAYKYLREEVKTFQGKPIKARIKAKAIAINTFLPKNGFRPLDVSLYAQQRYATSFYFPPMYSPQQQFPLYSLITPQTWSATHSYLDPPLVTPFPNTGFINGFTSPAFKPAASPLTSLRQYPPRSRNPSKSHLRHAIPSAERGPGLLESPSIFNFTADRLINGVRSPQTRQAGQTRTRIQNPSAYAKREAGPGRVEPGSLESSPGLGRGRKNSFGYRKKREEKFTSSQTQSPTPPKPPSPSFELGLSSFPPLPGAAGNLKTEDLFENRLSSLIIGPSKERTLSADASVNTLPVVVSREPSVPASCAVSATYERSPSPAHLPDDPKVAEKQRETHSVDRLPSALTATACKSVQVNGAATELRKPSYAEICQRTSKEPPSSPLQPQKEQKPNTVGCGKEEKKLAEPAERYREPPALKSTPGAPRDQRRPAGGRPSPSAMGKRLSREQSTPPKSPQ

Turning to “MSGFDDPGIFYSDSFGGDAQADEGQARKSQLQRRFKEFLRQYRVGTDRTGFTFKYRDELKRHYNLGEYWIEVEMEDLASFDEDLADYLYKQPAEHLQLLEEAAKEVADEVTRPRPSGEEVLQDIQVMLKSDASPSSIRSLKSDMMSHLVKIPGIIIAASAVRAKATRISIQCRSCRNTLTNIAMRPGLEGYALPRKCNTDQAGRPKCPLDPYFIMPDKCKCVDFQTLKLQELPDAVPHGEMPRHMQLYCDRYLCDKVVPGNRVTIMGIYSIKKFGLTTSRGRDRVGVGIRSSYIRVLGIQVDTDGSGRSFAGAVSPQEEEEFRRLAALPNVYEVISKSIAPSIFGGTDMKKAIACLLFGGSRKRLPDGLTRRGDINLLMLGDPGTAKSQLLKFVEKCSPIGVYTSGKGSSAAGLTASVMRDPSSRNFIMEGGAMVLADGGVVCIDEFDKMREDDRVAIHEAMEQQTISIAKAGITTTLNSRCSVLAAANSVFGRWDETKGEDNIDFMPTILSRFDMIFIVKDEHNEERDVMLAKHVITLHVSALTQTQAVEGEIDLAKLKKFIAYCRVKCGPRLSAEAAEKLKNRYIIMRSGARQHERDSDRRSSIPITVRQLEAIVRIAEALSKMKLQPFATEADVEEALRLFQVSTLDAALSGTLSGVEGFTSQEDQEMLSRIEKQLKRRFAIGSQVSEHSIIKDFTKQKYPEHAIHKVLQLMLRRGEIQHRMQRKVLYRLK [MCM5]”, the “solubility in G1/S (log2)” value in data set [1] was -0.322. Besides, the melting temperature was 51.9 °C in data set [2] (cell cycle stage: G1/S) and 51.4 °C in data set [2] (cell cycle stage: mitosis). For the same substance, in data set [3], the “solubility change mitosis (log2)” value is -0.0997. Further, the results for the thermal stability score in data set [4] (setting [5]) and in data set [4] (cell cycle stage: mitosis) were 1.16 and 0.714, respectively.
In the case of “MAAASVTPPGSLELLQPGFSKTLLGTKLEAKYLCSACRNVLRRPFQAQCGHRYCSFCLASILSSGPQNCAACVHEGIYEEGISILESSSAFPDNAARREVESLPAVCPSDGCTWKGTLKEYESCHEGRCPLMLTECPACKGLVRLGEKERHLEHECPERSLSCRHCRAPCCGADVKAHHEVCPKFPLTCDGCGKKKIPREKFQDHVKTCGKCRVPCRFHAIGCLETVEGEKQQEHEVQWLREHLAMLLSSVLEAKPLLGDQSHAGSELLQRCESLEKKTATFENIVCVLNREVERVAMTAEACSRQHRLDQDKIEALSSKVQQLERSIGLKDLAMADLEQKVLEMEASTYDGVFIWKISDFARKRQEAVAGRIPAIFSPAFYTSRYGYKMCLRIYLNGDGTGRGTHLSLFFVVMKGPNDALLRWPFNQKVTLMLLDQNNREHVIDAFRPDVTSSSFQRPVNDMNIASGCPLFCPVSKMEAKNSYVRDDAIFIKAIVDLTGL [TRAF2]”, in data set [1], the “solubility in G1/S (log2)” value turned out to be 0.0627. The melting temperature is 52.5 °C in data set [2] (cell cycle stage: G1/S) and 52.2 °C in data set [2] (cell cycle stage: mitosis). Besides, the “solubility change mitosis (log2)” value in data set [3] is -0.084. Besides, the thermal stability score in data set [4] (setting [5]) is -0.77; in data set [4] (cell cycle stage: mitosis) it was -1.17.
Take LARP4B: the “solubility in G1/S (log2)” value in data set [1] is -0.183. The results for the melting temperature in data set [2] (cell cycle stage: G1/S) and in data set [2] (cell cycle stage: mitosis) were 50.8 °C and 50 °C, respectively. In addition, the “solubility change mitosis (log2)” value in data set [3] came to 0.533. For the same substance, the thermal stability score in data set [4] (setting [5]) was -0.656; in data set [4] (cell cycle stage: mitosis), -1.1.
Turning to “MPAESGKRFKPSKYVPVSAAAIFLVGATTLFFAFTCPGLSLYVSPAVPIYNAIMFLFVLANFSMATFMDPGIFPRAEEDEDKEDDFRAPLYKTVEIKGIQVRMKWCATCRFYRPPRCSHCSVCDNCVEEFDHHCPWVNNCIGRRNYRYFFLFLLSLTAHIMGVFGFGLLYVLYHIEELSGVRTAVTMAVMCVAGLFFIPVAGLTGFHVVLVARGRTTNEQVTGKFRGGVNPFTNGCCNNVSRVLCSSPAPRYLGRPKKEKTIVIRPPFLRPEVSDGQITVKIMDNGIQGELRRTKSKGSLEITESQSADAEPPPPPKPDLSRYTGLRTHLGLATNEDSSLLAKDSPPTPTMYKYRPGYSSSSTSAAMPHSSSAKLSRGDSLKEPTSIAESSRHPSYRSEPSLEPESFRSPTFGKSFHFDPLSSGSRSSSLKSAQGTGFELGQLQSIRSEGTTSTSYKSLANQTRNGSLSYDSLLTPSDSPDFESVQAGPEPDPPLGYTSPFLSARLAQQREAERHPRLVPTGPTHREPSPVRYDNLSRHIVASLQEREKLLRQSPPLPGREEEPGLGDSGIQSTPGSGHAPRTSSSSDDSKRSPLGKTPLGRPAVPRFGKPDGLRGRGVGSPEPGPTAPYLGRSMSYSSQKAQPGVSETEEVALQPLLTPKDEVQLKTTYSKSNGQPKSLGSASPGPGQPPLSSPTRGGVKKVSGVGGTTYEISV [ZDHHC5]”, the “solubility in G1/S (log2)” value in data set [1] was -0.172. Further, the melting temperature came out at 59.1 °C in data set [2] (cell cycle stage: G1/S) and 62.7 °C in data set [2] (cell cycle stage: mitosis). For the same substance, in data set [3], the “solubility change mitosis (log2)” value was determined as 0.124. Besides, the figures for the thermal stability score in data set [4] (setting [5]) and in data set [4] (cell cycle stage: mitosis) were -2.84 and 1.5, respectively.
As for SLC15A4, the “solubility in G1/S (log2)” value in data set [1] worked out at 0.0784. In addition, the melting temperature in data set [2] (cell cycle stage: G1/S) came out at 55.4 °C; in data set [2] (cell cycle stage: mitosis) it was 56.5 °C. Also, the “solubility change mitosis (log2)” value in data set [3] is -0.171. The thermal stability score was -2.84 in data set [4] (setting [5]) and -2.51 in data set [4] (cell cycle stage: mitosis).
With “MFGKRKKRVEISAPSNFEHRVHTGFDQHEQKFTGLPRQWQSLIEESARRPKPLVDPACITSIQPGAPKTIVRGSKGAKDGALTLLLDEFENMSVTRSNSLRRDSPPPPARARQENGMPEEPATTARGGPGKAGSRGRFAGHSEAGGGSGDRRRAGPEKRPKSSREGSGGPQESSRDKRPLSGPDVGTPQPAGLASGAKLAAGRPFNTYPRADTDHPSRGAQGEPHDVAPNGPSAGGLAIPQSSSSSSRPPTRARGAPSPGVLGPHASEPQLAPPACTPAAPAVPGPPGPRSPQREPQRVSHEQFRAALQLVVDPGDPRSYLDNFIKIGEGSTGIVCIATVRSSGKLVAVKKMDLRKQQRRELLFNEVVIMRDYQHENVVEMYNSYLVGDELWVVMEFLEGGALTDIVTHTRMNEEQIAAVCLAVLQALSVLHAQGVIHRDIKSDSILLTHDGRVKLSDFGFCAQVSKEVPRRKSLVGTPYWMAPELISRLPYGPEVDIWSLGIMVIEMVDGEPPYFNEPPLKAMKMIRDNLPPRLKNLHKVSPSLKGFLDRLLVRDPAQRATAAELLKHPFLAKAGPPASIVPLMRQNRTR [PAK4]”, in data set [1], the “solubility in G1/S (log2)” value worked out at 0.0713. For the same substance, the melting temperature is 51.3 °C in data set [2] (cell cycle stage: G1/S) and 50.5 °C in data set [2] (cell cycle stage: mitosis). Moreover, the “solubility change mitosis (log2)” value in data set [3] is -0.000436. Besides, the values for the thermal stability score in data set [4] (setting [5]) and in data set [4] (cell cycle stage: mitosis) were 0.186 and 0.111, respectively.
